In patent publication CN115707716A (DANSHENG MEDICAL TECH SHANGHAI CO LTD, dated 2023):

Experiments:
VEGF-A165 = molecular target: T1, VEGF-A165 (UniProt P15692-4 27-191); assay: ELISA, VEGF coated at 100 ng/well, HRP goat anti-human Fab detection
T1 construct: Isoform VEGF-A165; also called VEGF蛋白

TGF-β1蛋白 [1] = molecular target: T2, TGF-β1蛋白 (UniProt P01137 279-390); assay: ELISA, TGF-β1 coated at 100 ng/well, HRP goat anti-human Fab detection
T2 construct: Bought protein

TGF-β1蛋白 [2] = molecular target: T2, TGF-β1蛋白; assay: cell-based or functional assay

T2 sequence (P01137 279-390 limits assumed): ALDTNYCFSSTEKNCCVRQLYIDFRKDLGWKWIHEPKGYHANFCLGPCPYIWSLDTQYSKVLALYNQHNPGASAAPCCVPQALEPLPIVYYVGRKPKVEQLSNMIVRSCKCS
T1 sequence (P15692 other isoform, or with tags, fused parts or gaps limits assumed): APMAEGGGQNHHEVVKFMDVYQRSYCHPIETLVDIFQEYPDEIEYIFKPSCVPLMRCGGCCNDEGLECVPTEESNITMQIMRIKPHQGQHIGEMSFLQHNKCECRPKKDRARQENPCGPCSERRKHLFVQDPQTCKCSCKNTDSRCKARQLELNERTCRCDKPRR

B1: 抗TGF-β单抗12.7 (antibody, human IgG4 S228P, kappa, V domains shown)
VH: QVQLVQSGAEVKKPGASVKVSCKASGYTFTSEWMNWVRQAPGQGLEWMGQIFPALGSTNYNEMYEGRVTMTTDTSTSTAYMELRSLRSDDTAVYYCARGIGNYALDAMDYWGQGTLVTVSS
VL: DIQMTQSPSSLSASVGDRVTITCRASESVDFYGNSFMHWYQQKPGKAPKLLIYLASNLESGVPSRFSGSGSGTDFTLTISSLQPEDFATYYCQQNIEDPLTFGGGTKVEIKR
notes: also called mAb127
binding result (VEGF-A165): no binding (tested: 200nM)
EC50 (TGF-β1蛋白 [1]): 0.202 nM
SMAD3报告基因抑制实验 IC50 (TGF-β1蛋白 [2]): 0.337 nM
